From patent US5882644A, “Monoclonal antibodies specific for the platelet derived growth factor β receptor and methods of use thereof” (Protein Design Labs, Inc., priority 1996, dated 1999)

Tests used:
[1] = system: PDGF-R β deletion fusion proteins; test: ELISA epitope mapping with PDGF-R β deletion fusion proteins; type: binding, human
Excerpt: To localize the binding sites of the M4TS antibodies on the PDGF-R, a series of PDGF-R β deletion mutants, each consisting of one or more adjacent domains of the extracellular portion of the receptor, was constructed by standard methods including PCR. The deletion constructs were each cloned into an expression plasmid (FIG. 13A) where they were fused to the constant region of the human lambda-1 immunoglobulin light chain, to facilitate detection in ELISA. The constructs were as follows (see FIG. 13B):
These PDGF-R β deletion fusion proteins were transiently expressed, by transfecting 10 μg of the respective expression plasmids into approximately 10^7 S194 mouse myeloma cells (ATCC TIB 19) using the DEAE-dextran method in accordance with the method described by Queen et al. (1984) Mol. Cell. Biol. 4:1042. After the transfected cells had died (4-5 days) and been removed by centrifugation, the culture supernatants containing the PDGF-R β deletion proteins were used in ELISA assays, 100 μl/well. First, the relative levels of the various PDGF-R β deletion proteins were measured in an ELISA where the plate was coated with goat anti-human lambda antibody (Tago) and the proteins detected with HRP-conjugated goat anti-human lambda antibody. […] To determine the ability of the antibodies to bind to each deletion protein, an ELISA was performed in which goat anti-human lambda antibody was used to coat the plate, followed by the cell supernatant and then 0.1 μg of the appropriate antibody, and then bound antibody detected with HRP-conjugated goat-anti-mouse Ig or goat-anti-human Ig antibody as appropriate (Tago). As a positive control, purified soluble PDGF-R β (Example 1) was coated directly on certain wells of the plate (denoted D1-5 in FIG. 14).

[2] = system: Rat aortic smooth muscle cells (SMC); test: Inhibition of PDGF BB-mediated proliferation of rat aortic smooth muscle cells; type: cell-based; details: PDGF BB 10 ng/ml, 3H-thymidine 19 to 26 hr
Protocol: To determine whether muM4TS.11 inhibits PDGF-mediated proliferation of rat cells in vitro, the following experiment was performed. Rat aortic smooth muscle cells (SMC) were plated at a 1:3 split ratio in 10% FCS and made quiescent 24 hours later by changing the medium to 1% control process serum replacement II (Sigma, St. Louis, Mo.). Three to five days later, the cells were stimulated with PDGF BB (10 ng/ml). At the time of stimulation, increasing doses of the specific MAb or mouse IgG (control) were added. Cell proliferation was determined by measuring ^3 H-thymidine incorporated into DNA when the cells were pulsed from 19 to 26 hr after stimulation. MuM4TS.11 inhibited proliferation in a concentration-dependent manner with an IC50 of about 0.5 μg/ml.

[3] = system: human primary fibroblast cell line AG1523B; test: Inhibition of PDGF BB-stimulated proliferation of AG1523B fibroblasts; type: cell-based; details: 300 ng/ml PDGF BB
[4] = system: PDGF-R β; test: Competition with 125I-labeled murine antibody tracer on Sp2/0 PDGF-R β transfectant cells; type: binding, human; details: calculated from competitive binding data; Sp2/0 PDGF-R β transfectants
Protocol: To assess the ability of HuM4TS.22 to compete with muM4TS.22 for receptor binding, increasing concentrations of the two antibodies were respectively incubated on ice for one hour with Sp2/0 PDGF-R β transfectant cells and a fixed amount of tracer ^125 I-labeled muAb. The sample tubes were processed as in the blocking experiment just described.
To assess the ability of HuM4TS.11 to compete with the muAb for receptor binding, increasing concentrations of the two antibodies were respectively incubated on ice for one hour with Sp2/0 PDGF-R β transfectant cells and a fixed amount of tracer ^125 I-labeled M4TS.11. The sample tubes were processed as in the blocking experiment described. […] The binding affinities calculated from the data were: Ka =5×10^8 M^-1 for the muAb and 3×10^7 M^-1 for the HuAb.

binding to deletion proteins containing only first through third domains ([1]; 0.1 μg antibody): do not bind
binding to protein D1-4 ([1]; 0.1 μg antibody): do bind to protein D1-4
B1: muM4TS.11: murine monoclonal antibody to PDGF-R β, variable regions SEQ ID NOS:10 and 12; epitope in fourth extracellular domain (antibody, V domains shown)
VL: METETLLLWVLLLWVPGSTGDIVLTQSPPSLAVSLGQRATISCRASESVDSYGNSFMHWYQQKPGQPPKLLIYRASNLESGIPARFSGGGSRTDFTLTINPVEADDVATYYCQQSNEDPPTFGGGTKLEIK
VH: MERHWIFLFLFSVTAGVHSQVQLQQSGAEVAKPGASVKMSCKASGYTFTNCWMHWVKQRPGQGLEWIGYINPTTGYSEYNQNFKDKATLTADKSSNTAYIQLSSLTSEDSAVYYCTSNYGHYDWFANWGQGTLVT
binding to protein D5 (fifth domain only) ([1]; separate experiment): none of muM4TS.11 and HuM4TS.11, muM4TS.22 and HuM4TS.22 bound to it
IC50 of inhibition of proliferation [2]: about 0.5 μg/ml
inhibition of stimulation of proliferation by PDGF BB [3]: effectively inhibited the stimulation of proliferation by PDGF BB
binding affinity Ka [4]: 5e+08 M⁻¹
